Changes are numbered by the printed parent chain.

This assay addresses human serum albumin (human) (UniProt P02768). The assay is described as follows: screening ELISA.

Chain of human serum albumin (human) (P02768 25-609 limits assumed): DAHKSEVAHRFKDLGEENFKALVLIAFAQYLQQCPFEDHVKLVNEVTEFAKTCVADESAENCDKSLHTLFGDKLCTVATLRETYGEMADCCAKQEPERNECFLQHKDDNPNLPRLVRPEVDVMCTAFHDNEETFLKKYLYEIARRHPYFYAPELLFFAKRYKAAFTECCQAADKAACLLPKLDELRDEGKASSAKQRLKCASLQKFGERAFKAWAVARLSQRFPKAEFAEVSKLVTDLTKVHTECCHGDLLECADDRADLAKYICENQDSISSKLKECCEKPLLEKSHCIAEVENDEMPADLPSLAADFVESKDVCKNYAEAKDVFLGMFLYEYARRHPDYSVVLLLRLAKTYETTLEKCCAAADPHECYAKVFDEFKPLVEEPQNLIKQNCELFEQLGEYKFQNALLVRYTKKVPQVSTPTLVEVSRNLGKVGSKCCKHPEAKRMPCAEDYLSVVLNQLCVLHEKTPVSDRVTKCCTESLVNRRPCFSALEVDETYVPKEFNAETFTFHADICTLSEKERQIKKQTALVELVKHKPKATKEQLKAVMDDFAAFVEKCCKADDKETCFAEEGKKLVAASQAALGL

B1: SEQ ID NO 262 (designed binder)
chain: MLPAPKNLVVSRVTEDSARLSWTAPDAAFDSFAIEYFEYTGEGEAIVLTVPGSERSYDLTGLKPGTEYYVGIYGVKGGYLSRPLSAIFTT
As to B1, the HSA came out at 2350.

B2: SEQ ID NO 279 (designed binder)
chain: B1 chain with A33S, F37Y, Y39S, T40V, E42L, Y69D, G71S
As to B2, the HSA is 3150.

B3: SEQ ID NO 54 (designed binder)
chain: B1 chain with A33Q, E35L, F37Q, Y39N, T40A, G41F, Y69W, G71Y, L80P, R82V
B3 came in with an HSA of 6160.

B4: SEQ ID NO 277 (designed binder)
chain: B1 chain with A33W, E35N, F37Y, Y39G, T40I, G71D, Y73S, Y79S, L80Y, R82L
Regarding B4, the HSA stood at 5200.

B5: SEQ ID NO 256 (designed binder)
chain: MLPAPKNLVVSRVTEDSARLSWTAPDAAFDSFHIVYHEPRPSGEAIVLTVPGSERSYDLTGLKPGTEYEVGIVGVKGGDLSVPLSAIFTT
B5 registered an HSA of 2200.

B6: SEQ ID NO 271 (designed binder)
chain: B5 chain with H33Y, V35P, H37A, P39T, P41D, S42D, E69S, G71L, V73H, V82S
Molecule B6 gave an HSA of 3050.

B7: SEQ ID NO 282 (designed binder)
chain: B5 chain with H33A, S42D, G71V, V73L, D79V, L80H, V82Y
For B7, the HSA stood at 18600.

B8: SEQ ID NO 295 (designed binder)
chain: B5 chain with H33F, V35G, H37L, R40I, E69P, G71V, V73Q, D79H, L80P, V82Q
In turn, B8 returned an HSA of 3800.

B9: SEQ ID NO 258 (designed binder)
chain: B5 chain with H33F, V35P, H37A, R40S, S42T, E69D, G71W, V73E, D79V, V82W
With B9, the HSA is 10600.

B10: SEQ ID NO 285 (designed binder)
chain: B5 chain with H33L, V35P, H37A, P39T, R40S, E69S, G71L, V73H, L80Y, V82S
The molecule B10 registered an HSA of 2200.

B11: SEQ ID NO 257 (designed binder)
chain: B5 chain with G74S
B11 came in with an HSA of 3950.

B12: SEQ ID NO 278 (designed binder)
chain: B5 chain with H33P, V35A, H37A, S42D, E69S, G71L, V73H, D79H, V82D
B12 yielded an HSA of 6500.

B13: SEQ ID NO 283 (designed binder)
chain: B5 chain with H33P, V35A, H37A, S42D, E69S, G71L, V73H, D79L, V82S
The molecule B13 gave an HSA of 6250.

B14: SEQ ID NO 286 (designed binder)
chain: MLPAPKNLVVSRVTEDSARLSWTAPDAAFDSFNIYYPEFPVRGEAIVLTVPGSERSYDLTGLKPGTEYVVSIWGVKGGTQSWPLSAIFTT
As to B14, the HSA turned out to be 10800.

B15: SEQ ID NO 261 (designed binder)
chain: MLPAPKNLVVSRVTEDSARLSWTAPDAAFDSFTIVYGEWGVPGEAIVLTVPGSERSYDLTGLKPGTEYDVWIEGVKGGDLSWPLSAIVTT
Consider B15, for which the HSA stood at 5550.

B16: SEQ ID NO 268 (designed binder)
chain: B15 chain with W39A, V41A, P42F, W71L, D79N, V88F
Molecule B16 had an HSA of 2550.

B17: SEQ ID NO 294 (designed binder)
chain: B15 chain with T33S, V35I, G37S, G40N, P42T, D79G, L80M, W82K, V88S
Regarding B17, the HSA amounted to 8250.

B18: SEQ ID NO 267 (designed binder)
chain: B15 chain with T33P, G37S, W39I, G40H, P42I, D79H, W82E, V88F
For the molecule B18, the HSA was 11900.

B19: SEQ ID NO 290 (designed binder)
chain: MLPAPKNLVVSRVTEDSARLSWTAPDAAFDSFFYLEQAWGGEAIVLTVPGSERSYDLTGLKPGTEYWVEITGVKGGYASSPLSAIFTT
In the case of B19, the HSA amounted to 11800.

B20: SEQ ID NO 260 (designed binder)
chain: MLPAPKNLVVSRVTEDSARLSWTAPDAAFDSFNISYYEYFVHGEAIVLTVPGSERSYDLTGLKPGTEYYVIDGVKGGDPSEPLSAIFTT
For the molecule B20, the HSA is 14400.

B21: SEQ ID NO 269 (designed binder)
chain: MLPAPKNLVVSRVTEDSARLSWTAPDAAFDSFHINYAEVYTKGEAILLTVPGSERSYDLTGLKPGTEYEVYIPGVKGGPFSRPLNAQFTT
Consider B21, for which the HSA is 4150.

B22: SEQ ID NO 259 (designed binder)
chain: MLPAPKNLVVSRVTEDSARLSWTAPDAAFDSFTIEYFEFVDAGEAIVLTVPGSERSYDLTGLKPGTEYWVEIWGVKGGSWSKPLSAIFTT
The molecule B22 gave an HSA of 2100.

B23: SEQ ID NO 56 (designed binder)
chain: B1 chain with A33V, Y39A, T40L, G41E, E42G, Y69F, Y79P, R82K
For the molecule B23, the HSA is 7520.

B24: SEQ ID NO 55 (designed binder)
chain: B22 chain with T33I, F37W, D41G, A42Y, E71A, W73Y, S79D, W80L
B24 returned an HSA of 7760.

B25: SEQ ID NO 266 (designed binder)
chain: MLPAPKNLVVSRVTEDSARLSWTAPDAAFDSFMIRYQEGTRWGEAIVLTVPGSERSYDLTGLKPGTEYIVMIAGVKGGQISLPLSAIFTT
Turning to B25, the HSA was determined as 2650.

B26: SEQ ID NO 281 (designed binder)
chain: MLPAPKNLVVSRVTEDSARLSWTAPDAAFDSFYIDYDEIHDWGEAIVLTVPGSERSYDLTGLKPGTEYAVQIGGVKGGSFSWTLSAIFTT
Consider B26, for which the HSA came to 22400.

B27: SEQ ID NO 52 (designed binder)
chain: MLPAPKNLVVSRVTEDSARLSWTAPDAAFDSFKISYQEWWEDGEAIVLTVPGSERSYDLTGLKPGTEYWVNISGVKGGVQSYPLSAIFTT
Consider B27, for which the HSA was 1760.

B28: SEQ ID NO 264 (designed binder)
chain: B27 chain with K33R, S35K, E41V, D42E, W69V, N71Q, S73A, V79L, Q80S
As to B28, the HSA came out at 2550.

B29: SEQ ID NO 53 (designed binder)
chain: B27 chain with K33F, Q37I, E41D, D42L, W69H, N71E, S73F, V79T
For the molecule B29, the HSA is 9120.

B30: SEQ ID NO 272 (designed binder)
chain: MLPAPKNLVVSRVTEDSARLSWTAPDAAFDSFGIPYAESTPTGEAIVLTVPGSERSYDLTGLKPGTEYSVLIHGVKGGHLSDPLSAIFTT
Consider B30, for which the HSA stood at 8950.

B31: SEQ ID NO 288 (designed binder)
chain: B30 chain with G33L, S39T, T40S, T42S, H79D, L80Y, D82S, F88S
B31 came in with an HSA of 40800.

B32: SEQ ID NO 275 (designed binder)
chain: B30 chain with G33L, P35A, S39V, P41L, T42H, H79R, L80N
Molecule B32 came in with an HSA of 3800.

B33: SEQ ID NO 291 (designed binder)
chain: MLPAPKNLVVSRVTEDSARLSWTAPDAAFDSFHIEYEEPETEGEAIYLHVPGSERSYDLTGLKPGTEYKVLIRGVKGGSYSIPLQAPFTT
B33: the HSA worked out at 2150.

B34: SEQ ID NO 274 (designed binder)
chain: MLPAPKNLVVSRVTEDSVRLSWTAPDAAFDSFAISYEEWWVHGEAIVLTVPGSERSYDLTGLKPGTEYSVVIPGVKGGLYSWTLSAISTT
As to B34, the HSA turned out to be 11900.

B35: SEQ ID NO 263 (designed binder)
chain: MLPAPKNLVVSRVTEDSARLSWTAPDAAFDSFFIGYLEPQPPGEAIVLTVPGSERSYDLTGLKPGTEYNVTIQGVKGGFPSMPLSAISTT
B35 had an HSA of 20400.

B36: SEQ ID NO 287 (designed binder)
chain: MLPAPKNLVVSRVTEDSARLSWTAPDAAFDSFTIEYHESGPVGEAIVLTVPGSERSYDLTGLKPGTEYMVWIFGVKGGFVSRPLSAIFTT
In turn, B36 showed an HSA of 5500.

B37: SEQ ID NO 276 (designed binder)
chain: MLPAPKNLVVSRVTEDSARLSWTAPDAAFDSFRIDYLELTSLGEAIVLTVPGSERSYDLTGLKPGTEYPVPILGVKGGLSSWPLSAIFTT
As for B37, the HSA amounted to 12400.

B38: SEQ ID NO 265 (designed binder)
chain: MLPAPKNLVVSRVTEDSARLSWTAPDAAFDSFWIYYIETSHQGEAIVLTVPGSERSYDLTGLKPGTEYFVLIKGVKGGYDSVPLSAIFTT
The molecule B38 yielded an HSA of 3950.

B39: SEQ ID NO 289 (designed binder)
chain: MLPAPKNLVVSRVTEDSARLSWTAPDAAFDSFAIPYYEDTNDGEAIVLTVPGSERSYDLTGLKPGTEYWVSIQGVKGGTVSGPLSAIFTT
On to B39, for which the HSA is 2150.

B40: SEQ ID NO 292 (designed binder)
chain: MLPAPKNLVVSRVTEDSARLSWTAPDAAFDSFDIAYWELTPSGEAIELLVPGSERSYDLTGLKPGTEYRVDIIGVKGGFISEPLGATFTT
Regarding B40, the HSA was found to be 8850.
